Article PMC12886386

Target: His10-pA-Tn5 (His10-tagged protein A-Tn5 transposase fusion) (not stated | Escherichia coli)
Test: SEC; HiLoad 16/600 Superdex 200 pg after Ni-NTA; buffer C: 50 mM Tris-HCl pH 7.5, 800 mM NaCl, 0.2 mM EDTA, 2 mM DTT, 10% (v/v) glycerol; fractions checked by SDS-PAGE and 260 nm/280 nm ratio

His10-pA-Tn5 (His10-tagged protein A-Tn5 transposase fusion) (enzyme)
stoichiometry N: 2
